The target of assay [1] is HER2 extracellular domain (coated on magnetic beads) (UniProt P04626). Nature of the assay: Lindmo method, magnetic beads coated with HER2 extracellular domain (BSA beads as negative control), paired-label.
The target in assay [2] is Human epidermal growth factor receptor 2 (HER2) on BT474M1 human breast carcinoma cells (human) (UniProt P04626). The assay is described as follows: saturation binding of radiolabeled VHH on BT474M1 cells at 4 C, non-specific binding with 100-fold excess trastuzumab.

In turn, [^131I]SGMIB-5F7 VHH yielded an immunoreactive fraction in assay [1] of 84.5%.

Regarding [^211At]SAGMB-5F7 VHH, the Kd (commonly the free concentration of one partner at which half of the binding sites on the other are occupied at equilibrium, for simple one-to-one binding) in assay [2] stood at 4.5 nM. Besides, the immunoreactive fraction in assay [1] stood at 83.5%.

The substance iso-[^131I]SGMIB-5F7 VHH yielded an immunoreactive fraction in assay [1] of 81.8%.

iso-[^211At]SAGMB-5F7 VHH showed an immunoreactive fraction in assay [1] of 81.3%.
